Source: patent US20200023081A1, “SELF-ASSEMBLING CYCLOPEPTIDE-DYE COMPOUNDS, FORMULATIONS THEREOF, AND USES THEREOF” (The Board of Trustees of the Leland Stanford Junior …, priority 2018, published 2020)
“And” between values parts separate entries of the source, which are not always exact repeats. Identical values can stand only once.

What was measured:
[1] = Blood half-life measurement by NIR-II blood signal; type: in vivo; details: mouse, BALB/c mice
Method: Arrows indicate the blood vessel signal.
Half-life: approximately 776 min.

[2] = Liver signal decay after IV injection; type: in vivo, BALB/c mice; details: BALB/c, mouse, IV 10 nmol, read-out: elimination half-life from liver signal decay curve (converted)
Excerpt: IV inject 10 nmol CH-RGD NPs into BALB/c mice (n=5). NIR-II fluorescent imaging (10001p, 200 ms) of mice in a supine position were taken 1, 2, 3, 4, 8, 12, 32, 60 days (d) post injection. Of 5 mice, 4 gave the strongest signal 2 days post-injection. One mouse gave it 1 day post-injection. Each liver signal was normalized with the 2 days post-injection intensity. GraphPad Prism 6 one phase decay analysis was used to get the half-life approximately 7.65 d.

bone = type: in vivo, BALB/c mice
Method: FIG. 3A illustrates a supine position, top CH-RGD, bottom CH-RAD 3 h post-injection. 22 nmol CH-RGD or CH-RAD was intravenously injected into 20-25 g hairless BALB/c mice (n=6, 3 males, 3 female). NIR-II imaging (200 ms, 1150LP, 808 nm 140 mW/cm^2 laser excitation) was taken at different time points post-injection (post-injection).
(§1) Teen-week old BALB/c mice (n=3 male and 3 female per group) were obtained from Charles River for bone imaging studies, teen-week old C57BL/6 female mice (n=4 per group) were obtained from Charles River for brain vessel studies, teen-week old NU/NU female mice (n=4 per group) were obtained from Charles River for leg vessel studies, teen-week old BALB/c male mice (n=4 per group) were obtained from Charles River and housed for another 42 weeks for lymph node and lymphatic vessel studies, eight-week old female NU/NU mice (n=3 per group) were obtained from Charles River for tumor targeting studies. Before vessel or tumor imaging, all mice were anaesthetized in a rodent anesthesia machine with 2 l min^−1 O2 gas mixed with 3% Isoflurane. Tail vein injection of contrast agents were carried with a catheter and synchronized with a camera that started continuous image acquisition simultaneously. The IV injected dose was a 200 μL bolus in a 1×PBS solution at specified concentrations. The ID injected dose was a 50 μL bolus in a 1×PBS solution at specified concentrations. During the time course of imaging the mouse was kept anaesthetized by a nose cone delivering 2 l min^−1 02 gas mixed with 3% isoflurane. The sample sizes of mice were selected based on previously reported studies. Mice were randomly selected from cages for all experiments. No blinding was performed.
(§2) Images were processed with ImageJ.

[3] = In vitro serum stability in FBS; type: in vitro ADME; details: 37° C.
Method: Fetal Bovine Serum (FBS, Gibco® Catalog #26140) was used to dilute the CH-RGD PBS stock solution into 2 mL, 10 μM mixture solution. And the mixture was incubated at 37° C. in a cell culture incubator for one month. At each designated time point, 200 μL serum mixture were collected for DLS and TEM analysis.

[4] = tested on: orthotopic bone tumors (143B); assay: Orthotopic 143B osteosarcoma imaging; type: in vivo, nude mice; details: ID injection
Method: Eight-week old female nude mice (Charles River) were anaesthetized using 2.0% isoflurane and positioned on a heating pad (42° C.). The shoulder was cleaned with 70% ethanol and betadine. 1×10^6 143B cells were first injected subcutaneously into the shoulder mice and the tumor allowed to grow to a diameter 5-8 mm solid tumor. The tumors were surgical resected and cut into 1×1×1 mm^3 pieces.
The right tibia of 8-week old NU/NU mice was opened in the central part by drilling with a dental drill for a 0.5 mm diameter hole. One tumor fragment was insert into the hole and contact with the bone marrow. Then the surgical wound was sutured. Mice were observed daily for tumor growth. Palpation, micro CT and 3T MRI were used to monitor the tumor growth. The mouse was used for imaging experiment, when the tumor size had reached to 3-5 mm diameter.

U87MG tumor [5] = assay: Double subcutaneous U87MG tumor imaging; type: in vivo, nude mice; details: IV 10 nmol
Method: FIG. 5A is a color photograph of a nude mouse with double xenograft brain tumor (U87MG) located on the left (approximately 1 mm) and right ([…]) shoulder. Intravenous injection of CH-RGD 10 nmol into the double tumor nude mice (n=3). NIR-II imaging (50 ms, 1000LP) at 3 days post-injection was taken at prone (FIG. 5B), right (FIG. 5C) and left (FIG. 5D) lateral decubitus.
The first right shoulder big tumor implantation is the same as above description. The difference is allowed the tumor grow for 2 to 3 weeks. When the right tumor diameter (ø) was between about 1 to 2 mm, 1×10^6 U87MG cells were injected into the mice left shoulder. After about 1 to 2 weeks, when the left shoulder tumor had grown to a diameter of about 1 mm and the right shoulder tumor was approximately 6 mm in diameter, the mouse was used for imaging.
as §2

[6] = Photostability under continuous 808 nm laser excitation; type: physicochemical; details: 45 min continuous laser excitation (0.33 W/cm^2, 808 nm) in water, pH 7.4 PBS, FBS
Excerpt: The NIR fluorescence spectrum was taken using a home-built NIR spectroscopy setup. The excitation source was a 0.25 W 808 nm laser. The excitation laser was filtered with a combination of an 850/1,000/1,100/1,200/1,300 nm short-pass filters (Thorlabs). The excitation light was allowed to pass through the solution sample in a 1-cm-path-length cuvette (Starna Cells) and the resulting emission filtered through a 900 nm long-pass filter (Thorlabs) to reject the incident excitation laser light. The emitted light was directed into a spectrometer (Princeton Instruments, IsoPlane 160) equipped with a two-dimensional InGaAs array (Princeton Instruments, NIRvana TE 640). Spectra were corrected post-collection to account for the sensitivity of the detector and extinction feature of the filter. Photostability was determined by spiking CH-RGD NPs into FBS, 1× pH 7.4 PBS and DI water, and exposing it in a 1-cm-path-length cuvette (Starna Cells) to continuous 808 nm excitation at a power density of 0.33 W cm^−2 and taking images every 5 mins for approximately 45 min. Stability was determined by measuring the ROI and comparing the fluorescence intensity against the starting fluorescence signal.

NIH/3T3 cells = assay: MTT cytotoxicity of CH-RGD NPs; type: cell-based
Method: The CH-RGD NPs toxicity was determined in vitro with a MTT assay (3-(4,5-dimethylthiazol-2-yl)-2,5-diphenyl tetrazolium bromide, Sigma-Aldrich, St. Louis, Mo.) on NIH/3T3 cells. Approximately 5,000 cells were incubated per well with 200 μL of DMEM growth medium and serially diluted CH-RGD NPs solution (n=6 for each concentration). The cells were kept at 37° C. in a humidified atmosphere containing 5% CO2 for 48 h in the presence of CH-RGD NPs at different concentrations. Immediately before addition of 20 μl of MTT (5 mg/mL), a colorimetric indicator of cell viability, the CH-RGD NPs-spiked medium was removed from each well plate and replaced with 180 μL fresh medium. After 4 h, the medium was carefully removed, 100 μL DMSO was added. Shaking for 10 mins, the color change was quantified using a microplate reader (TECAN Infinite M100) and taking absorbance readings at 570 nm with a reference wavelength of 650 nm. Cell viability was plotted as a fraction of the absorbance of control wells incubated without CH-RGD NPs.

[7] = tested on: metastatic tail bone tumor (143B); assay: Metastatic 143B bone tumor imaging; type: in vivo, mice; details: ID injection into left hind limb
Method: When the orthotopic 143B tumor grows to 3-4 mm diameter, surgery was performed to resect the tumor. Tumor was cut into pieces, and the visible tumor fragments were taken out. Then the surgical wound was sutured. Although the metastasis was not frequently occurring in mice tail, mice tail metastasis is the easiest diagnostic metastasis. By visual inspection, 143B tail metastasis mouse was chosen out. The mouse was used for imaging experiment when the tumor size reach to approximately 1 mm diameter.

[8] = literature value; cited from earlier work
[9] = tested on: lymphatic vessels and lymph nodes; assay: Lymphatic vessel and lymph node imaging after ID injection; type: in vivo, BALB/c mice
Method: FIGS. 4F and 4G show cross-sectional fluorescence intensity profiles taken along red-dashed lines in (FIGS. 4D and 4E). Gaussian fits to the profiles are shown in red dashed curves. Vessel width measurements were taken from Gaussian curves. Lymphatic vessels and lymph node imaging: 3 nmol CH-RGD (FIGS. 4H-4J, 4Q, 4Y), ICG (FIGS. 4K and 4R) and IR800-RGD(s) ID into BALB/c mice (n=4 per probe). NIR-II (50 ms, 1100LP)/NIR-I (100 ms, 814-851BP) imaging was taken 1 h (FIGS. 4H-4J)/(FIG. 4K), 5 h (FIG. 4Q)/FIGS. 4R and 4S), 30 d (FIG. 4U) post ID, injection site (FIG. 4I).
IR800-RGD (3 nmol) was injected intradermally into hair-removed BALB/c mouse (n=4 per probe, male, 1 years old, weight approximately 42 g) tail base. NIR-1 imaging (100 ms, 814 approximately 851 bandpass) was taken 1 h, 3 h, 5 h post-injection. Fluorescent signal appears in mice bladder from 1 h post-injection.
as §1, with “The sample sizes of mice were selected based on previously reported studies. Mice were randomly selected from cages for all experiments. No blinding was performed.” left out

blood vessels = assay: Blood vessel imaging (brain, hind limb); type: in vivo, mice; details: NIR-I imaging
Method: FIGS. 4A-4W show blood vessel, lymphatic vessel, and lymph node imaging with CH-RGD (NIR-II), ICG and IR800-RGD (NIR-I). 15 nmol CH-RGD, CH-PEG, ICG, IR800-RGD were IV injected into hairless C57BL/6 mice (FIGS. 4A-4C) or nude mice (FIGS. 4D and 4E). NIR-II (FIGS. 4A, 4B, 4D, 1000 ms, 1350LP) and NIR-I imaging (FIGS. 4C, 4E, 200 ms, 814-851BP) was taken 10 min post-injection. FIGS. 4A-4C, C57BL/6 mice brain vessel images.
as §1, with “The IV injected dose was a 200 μL bolus in a 1×PBS solution at specified concentrations. The ID injected dose was a 50 μL bolus in a 1×PBS solution at specified concentrations. During the time course of imaging the mouse was kept anaesthetized by a nose cone delivering 2 l min^−1 02 gas mixed with 3% isoflurane. The sample sizes of mice were selected based on previously reported studies. Mice were randomly selected from cages for all experiments. No blinding was performed.” left out

[10] = in DCE; cited from earlier work
U87MG tumor [11] = details: mouse, in vivo, iv
Method: (§3) Then NIR-II (200 ms, 1000LP) or NIR-I (200 ms, 814-851BP) images were taken at different time points.
(§4) Nude mice were purchased from Charles River. U87MG cells were cultured in Dulbecco's modified Eagle medium containing high glucose (Gibco), which were supplemented with 10% fetal bovine serum and 1% penicillin-streptomycin. The cell was expanded in tissue culture dish and kept in a humidified atmosphere of 5% CO2 at 37° C. The medium was changed every other day. A confluent monolayer was detached with 0.5% trypsin, and dissociated into a single-cell suspension for inoculation. When the mice reached eight weeks in age, mice were inoculated with 1×10^6 U87MG cells on the right front shoulder. The tumor was allowed to grow for approximately 30 days before imaging, at which point they were approximately 30-120 mm^3 in volume.
(§5) Mice were placed on a stage with a venous catheter for IV injection of contrast and imaging agents. 0.5 mL syringe was used directly for ID injection. All NIR-II images were collected on a 640×512 pixel two-dimensional InGaAs array (Princeton Instruments, NIRvana TE 640). The excitation laser was an 808 nm laser diode at a power density of approximately 140 mW cm^−2. Emission was typically collected with 1000, 1050, 1100, 1150, 1200, 1250, 1300, 1350, 1400 nm LP filter (Thorlabs). 50 mm and 75 mm prime lens (Edmund optics) was used to obtain magnifications ranging of 1× (whole body) to 2.5× (high magnification) magnification by changing the relative position of camera, lens and animals. A binning of 1 and a variable exposure time were used for the InGaAs camera (640×512 pixel) to capture images in the NIR-II window. Images were processed with ImageJ.
(§6) All NIR-I images were collected A 1,344×1,024-pixel Hamamatsu silicon CCD detector (Hamamatsu C8484-03G02; pixel number: 1,344×1,024; readout noise: approximately 7 electron r.m.s.; dark current: 0.01 electrons per second per pixel) with an 814-851 nm bond pass filter (Edmund, #84-107). […]

U87MG tumor [12] = assay: Subcutaneous U87MG tumor imaging, IV vs ID
Method: as §3, §4, §5, §6

Compound: N=C(N)NCCC[C@@H]1NC(=O)[C@H](CCCCNC(=O)CCc2ccc(N(c3ccc(CCC(=O)O)cc3)c3ccc(-c4c5c(c(-c6ccc(N(c7ccc(CCC(=O)O)cc7)c7ccc(CCC(=O)O)cc7)cc6)c6nsnc46)N=S=N5)cc3)cc2)NC(=O)[C@@H](Cc2ccc(O)cc2)NC(=O)[C@H](CC(=O)O)NC(=O)CNC1=O [CH-RGD, CH-c(RGDyk)]
- half-life [1]: ~12.9 h
- half-life [2]: ~184 h
- time BAT could be visualized (bone; mouse, in vivo): 10 days
- time bone signal still visualized, ex-vivo imaging (bone; mouse, in vivo): up to 45 days
- time bone signal still visualized, in vivo imaging (bone; mouse, in vivo): 3 days
- time NPs stable in FBS before degrading into smaller NPs [3]: up to 2 weeks
- time tumor still identifiable [4]: 7 days
- time of peak fluorescence intensity, large tumor (U87MG tumor [5]): 4 days
- time tumor fluorescence detectable, smaller tumor (U87MG tumor [5]; approximately 1 mm tumor): 4 h
- time tumor fluorescence detectable, larger tumor (U87MG tumor [5]; approximately 6 mm tumor): approximately 0.5 h
- photostability [6]: remains stable
- toxicity (NIH/3T3 cells): No obvious toxicity
- time tumors identified post-injection [7]: 1 days

Compound: CC1(C)C(/C=C/C=C/C=C/C=C2\N(CCCCS(=O)(=O)O)c3ccc4ccccc4c3C2(C)C)=[N+](CCCCS(=O)(=O)[O-])c2ccc3ccccc3c21 [ICG, indocyanine green]
- blood half-life [8]: 3 to 5 min
- SBR, subiliac lymph node ([9]; 5 h after ID injection): approximately 3
- FWHM, subiliac lymph node ([9]; 5 h after ID injection, Gaussian fitting): 2.8 mm and 2.803 mm
- width of lymphatic vessels detected ([9]; ID injection): greater than 400 μm
- blood vessel detection (blood vessels): only the largest brain blood vessels could be detected

Compound: ClC1=C(/C=C/c2cc(-c3ccccc3)[s+]c3ccccc23)CCC/C1=C\C=C1/C=C(c2ccccc2)Sc2ccccc21.[O-][Cl+3]([O-])([O-])[O-] [IR-26]
- quantum yield of reference fluorophore [10]: 0.05%

Compound: CH-c(RADyk) [CH-RAD]
- bone accumulation (bone; after 6 h post-injection): no dramatic accumulation in bone
- final concentration in bone by fluorescent intensity, relative to CH-RGD NPs (bone; mouse, in vivo): about half that of CH-RGD NPs
- time of maximum tumor fluorescence and TBR (U87MG tumor [11]): 1 days
- mean tumor fluorescent intensity (U87MG tumor [12]; IV administration): 22 k
- ID versus IV injection comparison (U87MG tumor [12]; mouse, in vivo, iv): better TBR through ID injection
